Legend:
[1] = Narrow pH stability study of rhNRG-1 (pH 2.3 to 4.3) by RP-HPLC with Arrhenius shelf life prediction; format: physicochemical
Method: In a plastic tube, add the API and DI-water. Mix into a solution containing 0.25 mg/mL rhNRG-1, 4 mM phosphate (from the API) and 0.1M NaCl (from the API). Adjust pH down using a diluted HCl. Once the first target is reached, transfer about 8 mL into a separate plastic tube and continue the titration to hit the next target and collect about 8 mL at each target (i.e. 4.29, 3.90, 3.78, 3.47, 3.36, 3.17, 3.02, 2.85, 2.58, 2.37 and 2.33). For each pH, transfer into glass vials for total 5 vials each level. Place one vial each at 2-8, 25, 40, 50 and 60° C. […]
For 40° C., remove 200 μL and test by HPLC after 0, 5.7, 7 and 11 days
Construct a narrow range pH-rate (stability) profile at each temperature.
Derive an Arrhenius equation and predict shelf life at 5° C.
Using the 40, 50 and 60° C. data for each pH (2.3 to 3.9), an Arrhenius plot was used to predict the shelf life at 5° C. for each pH level. The T90 values calculated from the Arrhenius plots are provided as follows (Table 11): […]

[2] = Forced degradation study of rhNRG-1 (oxidation with H2O2), RP-HPLC; format: physicochemical; details: for rhNRG-1 conc.: 0.06% H2O2, RT
Method: The API solution was forced to degrade as follow (Table 12):
The samples collected at time point was analyzed by the RP-HPLC.

[3] = pH 2.37, predicted shelf life at 5° C. from Arrhenius plot
[4] = pH 2.58, predicted shelf life at 5° C. from Arrhenius plot
[5] = pH 3.02, predicted shelf life at 5° C. from Arrhenius plot
[6] = pH 3.36, predicted shelf life at 5° C. from Arrhenius plot
[7] = pH 3.90, predicted shelf life at 5° C. from Arrhenius plot

B1: rhNRG-1: proteins or peptides which consist of amino acid sequence of SEQ ID NO: 2 (protein, listed as Homo sapiens)
chain: SHLVKCAEKEKTFCVNGGECFMVKDLSNPSRYLCKCPNEFTGDRCQNYVMASFYKAEELYQ
- pH of the best stability, narrow pH study ([1]; pH 2.3 to 4.3): 3.4 (±0.2)
- Initial Conc ([1]; pH 2.37 (diluted HCl)): 0.241 mg/mL
- % over initial conc. ([1]; pH 2.37, 40° C., 5.7 days): 90%
- % over initial conc. ([1]; pH 2.37, 40° C., 7 days): 83%
- % over initial conc. ([1]; pH 2.37, 40° C., 11 days): 77%
- % over initial conc. ([1]; pH 2.37, 50° C., 5.7 days): 82%
- % over initial conc. ([1]; pH 2.37, 50° C., 7 days): 53%
- % over initial conc. ([1]; pH 2.37, 50° C., 11 days): 36%
- % over initial conc. ([1]; pH 2.37, 60° C., 3.7 days): 55%
- % over initial conc. ([1]; pH 2.37, 60° C., 4.7 days): 57%
- % over initial conc. ([1]; pH 2.37, 60° C., 5.7 days): 43%
- T90 [1, 3]: 166 days
- T90 (months) [1, 3]: 6 months
- Initial Conc ([1]; pH 2.58 (diluted HCl)): 0.238 mg/mL
- % over initial conc. ([1]; pH 2.58, 40° C., 5.7 days): 96%
- % over initial conc. ([1]; pH 2.58, 40° C., 7 days): 89%
- % over initial conc. ([1]; pH 2.58, 40° C., 11 days): 83%
- % over initial conc. ([1]; pH 2.58, 50° C., 5.7 days): 90%
- % over initial conc. ([1]; pH 2.58, 50° C., 7 days): 54%
- % over initial conc. ([1]; pH 2.58, 50° C., 11 days): 35%
- % over initial conc. ([1]; pH 2.58, 60° C., 3.7 days): 62%
- % over initial conc. ([1]; pH 2.58, 60° C., 4.7 days): 60%
- % over initial conc. ([1]; pH 2.58, 60° C., 5.7 days): 55%
- T90 [1, 4]: 317 days
- T90 (months) [1, 4]: 11 months
- Initial Conc ([1]; pH 3.02 (diluted HCl)): 0.236 mg/mL
- % over initial conc. ([1]; pH 3.02, 40° C., 5.7 days): 99%
- % over initial conc. ([1]; pH 3.02, 40° C., 7 days): 94%
- % over initial conc. ([1]; pH 3.02, 40° C., 11 days): 88%
- % over initial conc. ([1]; pH 3.02, 50° C., 5.7 days): 95%
- % over initial conc. ([1]; pH 3.02, 50° C., 7 days): 79%
- % over initial conc. ([1]; pH 3.02, 50° C., 11 days): 70%
- % over initial conc. ([1]; pH 3.02, 60° C., 3.7 days): 70%
- % over initial conc. ([1]; pH 3.02, 60° C., 4.7 days): 68%
- % over initial conc. ([1]; pH 3.02, 60° C., 5.7 days): 0%
- T90 [1, 5]: 612 days
- T90 (months) [1, 5]: 20 months
- Initial Conc ([1]; pH 3.36 (diluted HCl)): 0.230 mg/mL
- % over initial conc. ([1]; pH 3.36, 40° C., 5.7 days): 101%
- % over initial conc. ([1]; pH 3.36, 40° C., 7 days): 97%
- % over initial conc. ([1]; pH 3.36, 40° C., 11 days): 90%
- % over initial conc. ([1]; pH 3.36, 50° C., 5.7 days): 99%
- % over initial conc. ([1]; pH 3.36, 50° C., 7 days): 85%
- % over initial conc. ([1]; pH 3.36, 50° C., 11 days): 76%
- % over initial conc. ([1]; pH 3.36, 60° C., 3.7 days): 77%
- % over initial conc. ([1]; pH 3.36, 60° C., 4.7 days): 69%
- % over initial conc. ([1]; pH 3.36, 60° C., 5.7 days): 63%
- T90 [1, 6]: 1092 days
- T90 (months) [1, 6]: 36 months
- Initial Conc ([1]; pH 3.90 (diluted HCl)): 0.230 mg/mL
- % over initial conc. ([1]; pH 3.90, 40° C., 5.7 days): 101%
- % over initial conc. ([1]; pH 3.90, 40° C., 7 days): 96%
- % over initial conc. ([1]; pH 3.90, 40° C., 11 days): 88%
- % over initial conc. ([1]; pH 3.90, 50° C., 5.7 days): 102%
- % over initial conc. ([1]; pH 3.90, 50° C., 7 days): 88%
- % over initial conc. ([1]; pH 3.90, 50° C., 11 days): 79%
- % over initial conc. ([1]; pH 3.90, 60° C., 3.7 days): 83%
- % over initial conc. ([1]; pH 3.90, 60° C., 4.7 days): 81%
- % over initial conc. ([1]; pH 3.90, 60° C., 5.7 days): 73%
- T90 [1, 7]: 239 days
- T90 (months) [1, 7]: 8 months
- Initial Conc ([1]; pH 4.29 (diluted HCl)): 0.235 mg/mL
- % over initial conc. ([1]; pH 4.29, 50° C., 5.7 days): 100%
- % over initial conc. ([1]; pH 4.29, 50° C., 11 days): 78%
- % over initial conc. ([1]; pH 4.29, 60° C., 3.7 days): 80%
- % over initial conc. ([1]; pH 4.29, 60° C., 5.7 days): 72%
- sensitivity to oxidation ([2]; H2O2 exposure): very sensitive to peroxide and prone to oxidation
- rhNRG-1 conc. ([2]; Oxidation exposure 0.3 hours): 0.24 mg/mL
- rhNRG-1 conc. ([2]; Oxidation exposure 2.4 hours): 0.15 mg/mL
- rhNRG-1 conc. ([2]; Oxidation exposure 4.5 hours): 0.10 mg/mL
- rhNRG-1 conc. ([2]; Oxidation exposure 7.1 hours): 0.07 mg/mL

Source: US11969458B2, “Formula of neuregulin preparation” (Zensun (Shanghai) Science & Technology, Co., Ltd., priority 2014, dated 2024)
